Measured values as given in PMC2925389, “Pre-Steady-State Kinetic Analysis of Truncated and Full-Length Saccharomyces cerevisiae DNA Polymerase Eta” (Journal of Nucleic Acids, 2010).

What was measured:
[1] = target: T1, yPolη full-length (Saccharomyces cerevisiae) (UniProt Q04049); assay: fluorescence titration (2-aminopurine); settings: 2-aminopurine at position 19 of the 41-mer template (X, written as A); 23°C, buffer A (composition not in material; without BSA for fluorescence); EMSA 10 nM DNA, 10-450 nM protein, 20 min, 4.5% native gel, 40 mM Tris in running …
T1 sequence: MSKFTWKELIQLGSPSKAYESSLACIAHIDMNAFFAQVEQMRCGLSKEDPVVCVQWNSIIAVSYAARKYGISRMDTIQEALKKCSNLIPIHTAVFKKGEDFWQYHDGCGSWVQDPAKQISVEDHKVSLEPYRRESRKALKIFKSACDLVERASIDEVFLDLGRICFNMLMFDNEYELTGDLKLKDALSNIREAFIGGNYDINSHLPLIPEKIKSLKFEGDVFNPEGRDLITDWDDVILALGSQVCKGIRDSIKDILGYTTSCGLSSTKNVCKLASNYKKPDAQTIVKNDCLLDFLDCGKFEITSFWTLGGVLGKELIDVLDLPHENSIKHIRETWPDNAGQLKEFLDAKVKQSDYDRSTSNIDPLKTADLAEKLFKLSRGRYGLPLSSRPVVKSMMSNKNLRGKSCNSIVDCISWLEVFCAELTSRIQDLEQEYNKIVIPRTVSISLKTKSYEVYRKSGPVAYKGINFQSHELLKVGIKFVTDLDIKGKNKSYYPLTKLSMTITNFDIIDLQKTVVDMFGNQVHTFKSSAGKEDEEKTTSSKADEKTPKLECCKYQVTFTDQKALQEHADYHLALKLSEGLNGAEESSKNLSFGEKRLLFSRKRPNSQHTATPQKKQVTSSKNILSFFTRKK

[2] = target: T2, yPolη truncated (catalytic core) (Saccharomyces cerevisiae) (UniProt Q04049); assay: fluorescence titration (2-aminopurine); settings: 2-aminopurine at position 19 of the 41-mer template (X, written as A); 23°C, buffer A (composition not in material; without BSA for fluorescence); EMSA 10 nM DNA, 10-450 nM protein, 20 min, 4.5% native gel, 40 mM Tris in running …
T2 sequence: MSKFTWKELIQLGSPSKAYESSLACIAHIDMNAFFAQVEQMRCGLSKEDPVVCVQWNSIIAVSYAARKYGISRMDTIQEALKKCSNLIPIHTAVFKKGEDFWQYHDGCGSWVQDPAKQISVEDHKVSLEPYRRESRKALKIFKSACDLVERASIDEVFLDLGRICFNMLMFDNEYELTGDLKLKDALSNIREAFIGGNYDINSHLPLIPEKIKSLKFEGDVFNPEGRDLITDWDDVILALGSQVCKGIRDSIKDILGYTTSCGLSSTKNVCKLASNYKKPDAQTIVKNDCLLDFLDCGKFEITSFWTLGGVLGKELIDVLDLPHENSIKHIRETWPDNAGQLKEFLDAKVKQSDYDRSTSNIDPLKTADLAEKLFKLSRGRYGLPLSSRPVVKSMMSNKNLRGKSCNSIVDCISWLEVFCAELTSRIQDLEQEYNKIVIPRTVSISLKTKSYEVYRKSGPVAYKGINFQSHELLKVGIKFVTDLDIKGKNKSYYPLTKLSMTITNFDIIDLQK

Q: Which Kd [1] does the source give for “CGCAGCCGTCCAACCAACTCA / GGACGGCATTGGATCGACACTGAGTTGGTTGGACGGCTGCG [F-8 21/41-mer]” here?
A: 7 nM

Q: And the Kd [2]?
A: 13 nM
